Measured values reported in article PMC3424542.
Residue numbers refer to the chain shown, from its start.

Columns and labels:
[1] = target: T1, XtrLin28b ZKD H155A (Xenopus tropicalis, UniProt B4F6I0 125-175, H155A); experiment: ITC
T1 sequence: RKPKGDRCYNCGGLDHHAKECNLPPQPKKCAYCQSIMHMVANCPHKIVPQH

[2] = target: T2, XtrLin28b ZKD (Xenopus tropicalis, UniProt B4F6I0 125-175); experiment: ITC
T2 sequence: T1 sequence with A31H

[3] = target: T3, XtrLin28b ZKD Y133A (Xenopus tropicalis, UniProt B4F6I0 125-175, Y133A); experiment: ITC
T3 sequence: T1 sequence with Y9A, A31H

[4] = target: T4, XtrLin28b CSD F66A (Xenopus tropicalis, UniProt B4F6I0 27-114, F66A); experiment: ITC
T4 sequence: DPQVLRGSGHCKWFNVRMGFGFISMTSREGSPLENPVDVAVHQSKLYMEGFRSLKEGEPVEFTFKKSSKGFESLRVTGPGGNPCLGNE

[5] = target: T5, XtrLin28b CSD W39A (Xenopus tropicalis, UniProt B4F6I0 27-114, W39A); experiment: ITC
T5 sequence: T4 sequence with W13A, A40F

[6] = target: T6, XtrLin28b CSD F48A (Xenopus tropicalis, UniProt B4F6I0 27-114, F48A); experiment: ITC
T6 sequence: T4 sequence with F22A, A40F

[7] = target: T7, XtrLin28b CSD (Xenopus tropicalis, UniProt B4F6I0 27-114); experiment: ITC
T7 sequence: T4 sequence with A40F

[8] = target: T8, XtrLin28b CSD H68A (Xenopus tropicalis, UniProt B4F6I0 27-114, H68A); experiment: ITC
T8 sequence: T4 sequence with A40F, H42A

[9] = target: T9, XtrLin28b CSD F77A (Xenopus tropicalis, UniProt B4F6I0 27-114, F77A); experiment: ITC
T9 sequence: T4 sequence with A40F, F51A

[10] = target: T7, XtrLin28b CSD; experiment: crystal structure

**Q.** Which Kd [1] does the source give for AAGGAGAA (ssRNA) [rZ1] here?
**A.** 2600 ± 600 nM

**Q.** And the Kd [2]?
**A.** 45 ± 4 nM

**Q.** And the Kd [3]?
**A.** 2200 ± 700 nM

**Q.** What does the source list for GUCACACC (ssRNA) [rlet-7f5]?
**A.** Kd [4]: 1440 ± 200 nM; Kd [5]: 1130 ± 110 nM; Kd [6]: 1610 ± 340 nM; Kd [7]: 18 ± 2 nM; Kd [8]: 540 ± 50 nM; Kd [9]: 1180 ± 60 nM

**Q.** Does UUUUUU (ssRNA) [rU6] bind [10]?
**A.** binds
